Measured values reported in patent US20150098955A1 (VIELA BIO, published 2015).

T1: Recombinant human CD40L (Human MegaCD40L; Axxora) (human, UniProt P29965 47-261, biotinylated with EZ-Link sulfo-NHS-biotin where used in the plate binding assay)
T1 construct: extracellular domain; Bought construct (Axxora ALX522110): two trimeric CD40 ligands linked via the ACRP30 collagen domain; also called biotinylated Human MegaCD40L; Mega human CD40L; not shown: FLAG tag and collagen domain of ACRP30/adiponectin that links two CD40L trimers
T1 sequence (looked up): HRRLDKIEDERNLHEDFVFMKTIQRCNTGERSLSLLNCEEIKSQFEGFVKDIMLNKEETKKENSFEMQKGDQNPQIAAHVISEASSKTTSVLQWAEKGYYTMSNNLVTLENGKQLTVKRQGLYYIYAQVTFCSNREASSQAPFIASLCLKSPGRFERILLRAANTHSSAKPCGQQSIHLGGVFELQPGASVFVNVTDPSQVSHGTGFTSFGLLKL

T2: Human CD40L, membrane form, on cells (Jurkat D1.1 cells; activated primary human T cells) (human, UniProt P29965 1-261)
T2 sequence: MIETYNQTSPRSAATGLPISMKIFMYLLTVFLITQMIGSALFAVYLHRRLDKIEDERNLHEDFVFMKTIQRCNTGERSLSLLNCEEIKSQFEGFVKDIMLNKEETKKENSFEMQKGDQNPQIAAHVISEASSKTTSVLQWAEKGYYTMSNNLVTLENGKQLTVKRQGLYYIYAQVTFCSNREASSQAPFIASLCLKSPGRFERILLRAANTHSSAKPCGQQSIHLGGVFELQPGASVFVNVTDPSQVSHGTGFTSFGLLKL


Experiments:
[1] = target: Murine CD40L on cells (D10.G4 / D10G4.1 cells; activated murine T cells) (murine) (UniProt P27548); assay: cell-based or functional assay
[2] = target: Murine MegaCD40L (Axxora, cat. ALX522120) (murine) (UniProt P27548); assay: cell-based or functional assay
[3] = target: T1, Recombinant human CD40L (Human …); assay: ProteOn XPR36 biosensor, human MegaCD40L immobilized on GLC chip, purified Tn3 as analyte
Description: Outputs were pool cloned into the soluble secretion vector as previously described, and five 96-well plates were screened for CD40L binding using the soluble protein screening assay described previously. Positive hits were identified relative to the signal obtained with the 311K4E backbone variant. […] PBS, 0.005% Tween20, 3 mM EDTA, pH7.4 was used as running buffer. Off-rates were ranked by visual inspection of the sensorgrams.

[4] = target: T1, Recombinant human CD40L (Human …); assay: capture ELISA: His-tagged Tn3 captured on anti-His antibody, biotinylated Human MegaCD40L detected with SA-HRP
[5] = target: T2, Human CD40L, membrane form, on cells …; assay: cell-based or functional assay
[6] = target: T2, Human CD40L, membrane form, on cells …; assay: cell-based or functional assay; remark: listed apart in the source
[7] = target: T1, Recombinant human CD40L (Human …); assay: ProteOn XPR36 biosensor, human MegaCD40L immobilized on GLC chip, Tn3 as analyte, equilibrium analysis, 25 C
Description: ProteOn phosphate buffered saline with 0.005% Tween 20, pH 7.4 (PBS/Tween) was used as running buffer. Human MegaCD40L was immobilized on the chip at a surface density of approximately 2300 RU. […] Samples of each concentration were injected into the six analyte channels at a flow rate of 30 μl/min. for 300 seconds. The Kd was determined by using the equilibrium analysis setting within the ProteOn software.

[8] = target: T1, Recombinant human CD40L (Human …); assay: cell-based or functional assay
[9] = target: Human CD40L, membrane form, on cells (Jurkat D1.1 cells; activated primary human T cells) (human) (UniProt P29965); assay: cell-based or functional assay

PBMC IC50 [6] [nM]	Kd [7] [nM]	Molecule	further results
–	–	MR1 anti-murine CD40L monoclonal antibody	IC50, inhibition of CD86 up regulation on CD19+ B cells (PBMC stimulated with D10.G4 cells) [1]: 0.23 nM; IC50, inhibition of CD40L-induced NFκB activity [2]: 0.2 nM
–	–	Clone 311K4E_15 - Clone Variant from second round of affinity maturation (designed binder, Secreted His8-tagged form) AIEVEDVTDTTALITWTNRSSYANYHHCELTYGIKDVPGDRTTIDLELYVHYSIGNLKPDTEYEVSLICLTTDGTYSNPAKETFTTGGGTLGHHHHHHHH	Kd [3]: 1.6 nM
–	–	309 variant with the BC loop changed to the parent Tn3 BC loop sequence (designed binder) AIEVKDVTDTTALITWFKPLAEIDGCELTYGIKDVPGDRTTIDLWWHSAWYSIGNLKPDTEYEVSLICYTDQEAGNPAKETFTTGGGTLGHHHHHHHH	binding result [4]: no binding
–	–	311 variant with the BC loop changed to the parent Tn3 BC loop sequence (designed binder) AIEVKDVTDTTALITWFKPLAEIDGCELTYGIKDVPGDRTTIDLSSPYVHYSIGNLKPDTEYEVSLICLTTDGTYSNPAKETFTTGGGTLGHHHHHHHH	binding result [4]: no binding
–	–	311 variant with the DE loop changed to the parent Tn3 DE loop sequence (designed binder) AIEVKDVTDTTALITWTNRSSYYNLHGCELTYGIKDVPGDRTTIDLTEDENQYSIGNLKPDTEYEVSLICLTTDGTYSNPAKETFTTGGGTLGHHHHHHHH	binding result [4]: no binding
–	–	Clone 311K4E_12 - Clone Variant from second round of affinity maturation (designed binder, Secreted His8-tagged form) AIEVEDVTDTTALITWTNRSSYSNLHGCELAYGIKDVPGDRTTIDLNQPYVHYSIGNLKPDTEYEVSLICLTTDGTYNNPAKETFTTGGGTLGHHHHHHHH	Kd [3]: 1.1 nM; fold increase in potency in the PBMC assay relative to 311K4E [5]: 12 fold
–	–	Clone 311K4E_3 - Clone Variant from second round of affinity maturation (designed binder, Secreted His8-tagged form) AIEVEDVTDTTALITWINRSSYHNFPHCELAYGIKDVPGDRTTIDLNSPYVHYSIGNLKPDTEYEVSLICLTTDGTYSNPAKETFTTGGGTLGHHHHHHHH	Kd [3]: 6.4 nM
–	–	Clone 311K4E_11 - Clone Variant from second round of affinity maturation (designed binder, Secreted His8-tagged form) AIEVEDVTDTTALITWTNRSSYANLPGCELTYGIKDVPGDRTTIDLNSPYVHYSIGNLKPDTEYEVSLICLTTDGTYSNPAKETFTTGGGTLGHHHHHHHH	Kd [3]: 6.3 nM
–	–	Clone 311K4E - Variant from first round of affinity maturation (designed binder, Secreted His8-tagged form) AIEVEDVTDTTALITWTNRSSYYNLHGCELTYGIKDVPGDRTTIDLSSPYVHYSIGNLKPDTEYEVSLICLTTDGTYSNPAKETFTTGGGTLGHHHHHHHH	Kd [3]: 18 nM; fold increase in potency over 311 in the PBMC assay [5]: ~100 fold
760	–	Clone 309FGwt - Parental clone with 'humanized' FG loop (designed binder) AIEVKDVTDTTALITWSDEFGHYDGCELTYGIKDVPGDRTTIDLWWHSAWYSIGNLKPDTEYEVSLICRRGDMSSNPAKETFTTGGGTLGHHHHHHHH	–
226	191	Clone 309 - Parental clone isolated from naive Tn3 library (designed binder, Secreted His8-tagged form purified on Ni-NTA) AIEVKDVTDTTALITWSDEFGHYDGCELTYGIKDVPGDRTTIDLWWHSAWYSIGNLKPDTEYEVSLICYTDQEAGNPAKETFTTGGGTLGHHHHHHHH	–
0.7	1.4	Clone 342 - Affinity Mature variant (w/WT FG loop) (designed binder, Secreted His8-tagged form) AIEVKDVTDTTALITWSDDFGEYVWCELTYGIKDVPGDRTTIDLWYHHAHYSIGNLKPDTEYEVSLICRRGDMSSNPAKETFTTGGGTLGHHHHHHHH	IC50, inhibition of human CD40L-induced NFκB activity (luciferase reporter HEK293 cells) [8]: 1.5 nM
38.2	21	Clone 349 - Affinity Mature variant (designed binder, Secreted His8-tagged form) AIEVKDVTDTTALITWSDEHAEFIGCELTYGIKDVPGDRTTIDLWWHSAWYSIGNLKPDTEYEVSLICRRGDMSSNPAKETFTTGGGTLGHHHHHHHH	–
1	1.8	Clone 348 - Affinity Mature variant (designed binder, Secreted His8-tagged form) AIEVKDVTDTTALITWSDDIGLYVWCELTYGIKDVPGDRTTIDLWFHQAWYSIGNLKPDTEYEVSLICRRGDMSSNPAKETFTTGGGTLGHHHHHHHH	–
0.6	2	Clone 343 - Affinity Mature variant (designed binder, Secreted His8-tagged form) AIEVKDVTDTTALITWLDDWGSYHVCELTYGIKDVPGDRTTIDLWYHQAWYSIGNLKPDTEYEVSLICRRGDMSSNPAKETFTTGGGTLGHHHHHHHH	–
0.7	2.2	Clone 340 - Affinity Mature variant (designed binder, Secreted His8-tagged form) AIEVKDVTDTTALITWSDDFDNYEWCELTYGIKDVPGDRTTIDLWYHMAWYSIGNLKPDTEYEVSLICRRGDMSSNPAKETFTTGGGTLGHHHHHHHH	–
9	14.9	Clone 346 - Affinity Mature variant (designed binder, Secreted His8-tagged form) AIEVKDVTDTTALITWSDDFEEYVVCELTYGIKDVPGDRTTIDLWWHSAWYSIGNLKPDTEYEVSLICRRGDMSSNPAKETFTTGGGTLGHHHHHHHH	–
37.3	39	Clone 345 - Affinity Mature variant (designed binder, Secreted His8-tagged form) AIEVKDVTDTTALITWSDDFAEYVGCELTYGIKDVPGDRTTIDLWWHSAWYSIGNLKPDTEYEVSLICRRGDMSSNPAKETFTTGGGTLGHHHHHHHH	–
11	10.7	Clone 347 - Affinity Mature variant (designed binder, Secreted His8-tagged form) AIEVKDVTDTTALITWSDEVGQYVGCELTYGIKDVPGDRTTIDLWYHMAWYSIGNLKPDTEYEVSLICRRGDMSSNPAKETFTTGGGTLGHHHHHHHH	–
1.3	–	Clone 344 - Affinity Mature variant (designed binder) AIEVKDVTDTTALITWSDEVGDYVVCELTYGIKDVPGDRTTIDLWYHMAWYSIGNLKPDTEYEVSLICRRGDMSSNPAKETFTTGGGTLGHHHHHHHH	–
0.7	–	Clone 341 - Affinity Mature variant (designed binder) AIEVKDVTDTTALITWSDDFADYVWCELTYGIKDVPGDRTTIDLWWHSAWYSIGNLKPDTEYEVSLICRRGDMSSNPAKETFTTGGGTLGHHHHHHHH	–
–	–	309 variant with the DE loop changed to the parent Tn3 DE loop sequence (designed binder) AIEVKDVTDTTALITWSDEFGHYDGCELTYGIKDVPGDRTTIDLTEDENQYSIGNLKPDTEYEVSLICYTDQEAGNPAKETFTTGGGTLGHHHHHHHH	binding result [4]: no binding
–	–	311-3GS bivalent tandem scaffold (designed binder) IEVKDVTDTTALITWTNRSSYYNLHGCELTYGIKDVPGDRTTIDLSSPYVHYSIGNLKPDTEYEVSLICLTTDGTYSNPAKETFTTGGGGSGGGGSGGGGSIEVKDVTDTTALITWTNRSSYYNLHGCELTYGIKDVPGDRTTIDLSSPYVHYSIGNLKPDTEYEVSLICLTTDGTYSNPAKETFTT	fold improvement over monovalent 311, inhibition of human CD40L-induced expression on CD19 positive human PBMCs [5]: ~7 fold
–	–	311-7GS bivalent tandem scaffold (designed binder) IEVKDVTDTTALITWTNRSSYYNLHGCELTYGIKDVPGDRTTIDLSSPYVHYSIGNLKPDTEYEVSLICLTTDGTYSNPAKETFTTGGGGSGGGGSGGGGSGGGGSGGGGSGGGGSGGGGSIEVKDVTDTTALITWTNRSSYYNLHGCELTYGIKDVPGDRTTIDLSSPYVHYSIGNLKPDTEYEVSLICLTTDGTYSNPAKETFTT	fold improvement over monovalent 311, inhibition of human CD40L-induced expression on CD19 positive human PBMCs [9]: 7 fold
